# In the supplement of paper PMC10567573:
# B1: TRIM35 (parent)
# chain: PTCPVCKDRASPADLRTNHTLNNL
# B2: RSPH3 (parent)
# chain: QRLEEQERRHREEKERRKKQQWEI
# Variants of: B1
# Assay: protein stability index of a GFP-peptide fusion (GPS, HEK-293T) (PSI 1-6); higher = more stable
# Settings: c terminus: a fixed tail appended
# 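Further: lentivirally expressed fusions sorted by FACS into six bins by GFP to DsRed ratio, PSI derived from sequencing read proportions per bin multiplied by bin number.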
row,Variant,protein stability index
1,PTCPVCKDRASPADLRTNHTLNWL [N23W],2.09
2,PTCPVCKDRASPADLRTNHTLNAL [N23A],2.73
3,PTCPVCKDRASPADLRTNHTLNGL [N23G],2.92
4,PTCPVCKDRASPADLRTNHTLNQL [N23Q],3.1
5,PTCPVCKDRASPADLRTNHTLNTL [N23T],2.58
6,PTCPVCKDRASPADLRTNHTLNEL [N23E],3.48
7,PTCPVCKDRASPADLRTNHTLNPL [N23P],2.76
8,PTCPVCKDRASPADLRTNHTLNML [N23M],2.47
9,PTCPVCKDRASPADLRTNHTLNIL [N23I],2.1
10,PTCPVCKDRASPADLRTNHTLNLL [N23L],2.28
11,PTCPVCKDRASPADLRTNHTLNVL [N23V],3.06
12,PTCPVCKDRASPADLRTNHTLNDL [N23D],3.81
13,PTCPVCKDRASPADLRTNHTLNRL [N23R],2.37
14,PTCPVCKDRASPADLRTNHTLNHL [N23H],3.47
15,PTCPVCKDRASPADLRTNHTLNCL [N23C],4.21
16,PTCPVCKDRASPADLRTNHTLNKL [N23K],3.12
17,PTCPVCKDRASPADLRTNHTLNFL [N23F],2.27
18,PTCPVCKDRASPADLRTNHTLNSL [N23S],3.18
19,PTCPVCKDRASPADLRTNHTLNYL [N23Y],1.88
20,PTCPVCKDRASPADLRTNHTANNL [L21A],3.22
21,PTCPVCKDRASPADLRTNHTPNNL [L21P],3.39

row,Variant,protein stability index
1,PTCPVCKDRASPADLRTNHTFNNL [L21F],2.62
2,PTCPVCKDRASPADLRTNHTMNNL [L21M],3.18
3,PTCPVCKDRASPADLRTNHTSNNL [L21S],3.42
4,PTCPVCKDRASPADLRTNHTCNNL [L21C],4.64
5,PTCPVCKDRASPADLRTNHTHNNL [L21H],3.66
6,PTCPVCKDRASPADLRTNHTRNNL [L21R],2.55
7,PTCPVCKDRASPADLRTNHTVNNL [L21V],2.96
8,PTCPVCKDRASPADLRTNHTKNNL [L21K],3.13
9,PTCPVCKDRASPADLRTNHTDNNL [L21D],3.99
10,PTCPVCKDRASPADLRTNHTNNNL [L21N],3.27
11,PTCPVCKDRASPADLRTNHTENNL [L21E],3.59
12,PTCPVCKDRASPADLRTNHTYNNL [L21Y],2.76
13,PTCPVCKDRASPADLRTNHTWNNL [L21W],2.18
14,PTCPVCKDRASPADLRTNHTINNL [L21I],2.61
15,PTCPVCKDRASPADLRTNHTTNNL [L21T],3.07
16,PTCPVCKDRASPADLRTNHTGNNL [L21G],3.3
17,PTCPVCKDRASPADLRTNHTQNNL [L21Q],3.52
18,PTCPVCKDRASPADLRTNHTLNNC [L24C],3.94
19,PTCPVCKDRASPADLRTNHTLNNE [L24E],4.03
20,PTCPVCKDRASPADLRTNHTLNNN [L24N],3.91
21,PTCPVCKDRASPADLRTNHTLNND [L24D],4.37

row,Variant,protein stability index
1,PTCPVCKDRASPADLRTNHTLNNW [L24W],3
2,PTCPVCKDRASPADLRTNHTLNNF [L24F],3.32
3,PTCPVCKDRASPADLRTNHTLNNK [L24K],3.37
4,PTCPVCKDRASPADLRTNHTLNNM [L24M],2.8
5,PTCPVCKDRASPADLRTNHTLNNY [L24Y],2.76
6,PTCPVCKDRASPADLRTNHTLNNP [L24P],3.83
7,PTCPVCKDRASPADLRTNHTLNNV [L24V],3.56
8,PTCPVCKDRASPADLRTNHTLNNA [L24A],3.89
9,PTCPVCKDRASPADLRTNHTLNNQ [L24Q],3.36
10,PTCPVCKDRASPADLRTNHTLNNT [L24T],3.62
11,PTCPVCKDRASPADLRTNHTLNNG [L24G],3.83
12,PTCPVCKDRASPADLRTNHTLNNR [L24R],1.82
13,PTCPVCKDRASPADLRTNHTLNNS [L24S],3.79
14,PTCPVCKDRASPADLRTNHTLNNH [L24H],3.58
15,PTCPVCKDRASPADLRTNHTLNNI [L24I],3.5
16,PTCPVCKDRASPADLRTNHYLNNL [T20Y],2.74
17,PTCPVCKDRASPADLRTNHWLNNL [T20W],2.09
18,PTCPVCKDRASPADLRTNHSLNNL [T20S],2.7
19,PTCPVCKDRASPADLRTNHVLNNL [T20V],3.19
20,PTCPVCKDRASPADLRTNHQLNNL [T20Q],3.06
21,PTCPVCKDRASPADLRTNHRLNNL [T20R],2.93

row,Variant,protein stability index
1,PTCPVCKDRASPADLRTNHTLENL [N22E],3.73
2,PTCPVCKDRASPADLRTNHTLGNL [N22G],3.39
3,PTCPVCKDRASPADLRTNHTLYNL [N22Y],2.38
4,PTCPVCKDRASPADLRTNHTLTNL [N22T],2.76
5,PTCPVCKDRASPADLRTNHTLCNL [N22C],4.13
6,PTCPVCKDRASPADLRTNHTLANL [N22A],3.06
7,PTCPVCKDRASPADLRTNHTLFNL [N22F],2.13
8,PTCPVCKDRASPADLRTNHTLPNL [N22P],2.44
9,PTCPVCKDRASPADLRTNHTLMNL [N22M],2.67
10,PTCPVCKDRASPADLRTNHTLINL [N22I],2.65
11,PTCPVCKDRASPADLRTNHTLRNL [N22R],1.98
12,PTCPVCKDRASPADLRTNHTLSNL [N22S],2.99
13,PTCPVCKDRASPADLRTNHTLLNL [N22L],2.56
14,PTCPVCKDRASPADLRTNHTLHNL [N22H],2.9
15,PTCPVCKDRASPADLRTNHTLWNL [N22W],2.02
16,PTCPVCKDRASPADLRTNHTLDNL [N22D],4.1
17,PTCPVCKDRASPADLRTNHTLQNL [N22Q],3.63
18,PTCPVCKDRASPADLRTNHTLVNL [N22V],2.21
19,PTCPVCKDRASPADLRTNHTLKNL [N22K],2.87

# Variants of: B2
# Assay: as above
# Settings: c terminus: a fixed tail appended
row,Variant,protein stability index
1,QRLELQERRHREEKERRKKQQWEI [E5L],4.44
2,QRLERQERRHREEKERRKKQQWEI [E5R],4.13
3,QRLEDQERRHREEKERRKKQQWEI [E5D],4.55
4,QRLEPQERRHREEKERRKKQQWEI [E5P],4.42
5,QRLENQERRHREEKERRKKQQWEI [E5N],3.67
6,QRLEQQERRHREEKERRKKQQWEI [E5Q],5.01
7,QRLEVQERRHREEKERRKKQQWEI [E5V],4.58
8,QRLEKQERRHREEKERRKKQQWEI [E5K],3.39
9,QRLEAQERRHREEKERRKKQQWEI [E5A],4.63
10,QRLEGQERRHREEKERRKKQQWEI [E5G],4.53
11,QRLEWQERRHREEKERRKKQQWEI [E5W],3.98
12,QRLEMQERRHREEKERRKKQQWEI [E5M],4.59
